Target: HLA-A*24 (human)
Assay: UV-exchange ELISA, exchange yield grade

Binder	peptide exchange yield [%]
YYMELTKLLL [… (SEQ ID NO: 156)]	> 75
DYIPASGFALF [… (SEQ ID NO: 157)]	50 to 75
IYEETRGVL [… (SEQ ID NO: 159)]	50 to 75
RYGDGGSSF [… (SEQ ID NO: 160)]	50 to 75
KYPDIVQQF [… (SEQ ID NO: 161)]	50 to 75
KYTSYILAF [… (SEQ ID NO: 162)]	20 to 49
RYLTISNLQF [… (SEQ ID NO: 163)]	> 75
HYVPATKVF [… (SEQ ID NO: 164)]	50 to 75
EYFTPLLSGQF [… (SEQ ID NO: 165)]	50 to 75
FYTLPFHLI [… (SEQ ID NO: 166)]	> 75
RYGFYYVEF [… (SEQ ID NO: 167)]	50 to 75
RYLEAALRL [… (SEQ ID NO: 168)]	50 to 75
NYITGKGDVF [… (SEQ ID NO: 169)]	50 to 75
QYPFHVPLL [… (SEQ ID NO: 170)]	> 75
NYEDHFPLL [… (SEQ ID NO: 171)]	50 to 75
VFIFKGNEF [… (SEQ ID NO: 172)]	> 75
QYLEKYYNL [… (SEQ ID NO: 173)]	> 75
VYEKNGYIYF [… (SEQ ID NO: 174)]	50 to 75
LYSPVPFTL [… (SEQ ID NO: 175)]	50 to 75
FYINGQYQF [… (SEQ ID NO: 176)]	50 to 75
VYFKAGLDVF [… (SEQ ID NO: 177)]	50 to 75
NYSSAVQKF [… (SEQ ID NO: 178)]	50 to 75
TYIPVGLGRLL [… (SEQ ID NO: 179)]	50 to 75
KYLQVVGMF [… (SEQ ID NO: 180)]	50 to 75
VYPPYLNYL [… (SEQ ID NO: 181)]	50 to 75
AYAQLGYLLF [… (SEQ ID NO: 182)]	> 75
PYLQDVPRI [… (SEQ ID NO: 183)]	50 to 75
IYSVGAFENF [… (SEQ ID NO: 184)]	> 75
QYLVHVNDL [… (SEQ ID NO: 185)]	> 75
VFTTSSNIF [… (SEQ ID NO: 186)]	> 75
